Test results taken from PMC6205948, “Phage-Borne Depolymerases Decrease Klebsiella pneumoniae Resistance to Innate Defense Mechanisms” (Frontiers in Microbiology, 2018).

B1: KP32gp38 (enzyme, Klebsiella phage KP32, UniProt D1L2X1 1-576, looked up)
chain: MLDNFNQPKGSTIGVLKDGRTIQEAFDSLPRLESFSGSTATDKLRAAITLGVSEVAIGPVEGNGGRPYEFGDVVIPYPLRIVGCGSQGINVTKGTVLKRSAGASFMFHFTGEGQAQRPMGGGLFNINLNGDTATALGDIIKVTQWSYFKANNCAFQNMAGWGIRLKDVMESNISGNLFRRLGGPSGGGILFDDVRSAVTDNVNNLHIEDNTFALMSGPWIGSTANSNPDLIWIVRNKFEFDGTPAAPNTVDSYVLDFQQLSRAFIQDNGFTHFTTERNRYVGVLRVGATAVGTIKFEDNLLFACESAGLIAGGIVVSRGNVNNQGSATTAIKQFTNTSSKLCKLERVINVQSNGNVSVGQQILPDGYINMAELPGNTRLPSEYDADGETTSVLRVPANTQVRQWSVPKMYKDGLTVTKVTVRAKGAAAGAILSLQSGSTVLSTKSIDAGVWKNYVFYVKANQLQETLQLRNTGTADVLADGMVFGKVDYIDWDFAIAPGTLAAGAKYTTPNQSYLDVAGMRVQAVSIPMFDGPTTGLQVWVEATSANGSFVVVMKNDTGSELVTTVTRCRVRAFVS
notes: open reading frame cloned into pEXP5-CT/TOPO; runs at about 62 kDa on SDS-PAGE; The vector pEXP5-CT/TOPO adds a C-terminal His6 tag (surmised from the vector's name); also called hypothetical protein; K21 depolymerase

Legend:
[1] = molecular target: KP32gp37 (Klebsiella phage KP32) (UniProt D1L2X0); assay: SEC-MALS; purified protein in solution, native conditions; SEC coupled to a miniDAWN TREOS MALS detector and Optilab rEX; proteins dialyzed against PBS pH 7.4
[2] = molecular target: the molecule itself; assay: as above

Molecule | stoichiometry N [1] | stoichiometry N [2]
KP32gp37 (from UniProt D1L2X0 1-869) (enzyme) | 3 | –
B1 | – | 3
